Test results reported in publication PMC4002113, “The p97-FAF1 Protein Complex Reveals a Common Mode of p97 Adaptor Binding*” (The Journal of Biological Chemistry, 2014).
Where “and” joins values, the source holds several entries; their conditions need not be identical. Identical values can stand only once.

Columns and labels:
[1] = target: T1, C-terminally His-tagged full-length p97 (residues 1–806) (murine, UniProt Q01853 1-806); experiment: ITC; full-length p97 in the cell at 10–50 μM, FAF1 or FAF1 truncation as titrant at 7.5 to 10 times the cell concentration; 20 mM HEPES, 150 mM KCl, pH 7.4; 30 °C; average of two measurements; conditions: both partners purified
T1 construct: p97 (VCP), murine, full length, residues 1–806, in PET22b; Hexamer, with a minor dodecamer, by SV-AUC; also called VCP; valosin-containing protein
T1 sequence (Q01853 whole entry, the tested form may be a part): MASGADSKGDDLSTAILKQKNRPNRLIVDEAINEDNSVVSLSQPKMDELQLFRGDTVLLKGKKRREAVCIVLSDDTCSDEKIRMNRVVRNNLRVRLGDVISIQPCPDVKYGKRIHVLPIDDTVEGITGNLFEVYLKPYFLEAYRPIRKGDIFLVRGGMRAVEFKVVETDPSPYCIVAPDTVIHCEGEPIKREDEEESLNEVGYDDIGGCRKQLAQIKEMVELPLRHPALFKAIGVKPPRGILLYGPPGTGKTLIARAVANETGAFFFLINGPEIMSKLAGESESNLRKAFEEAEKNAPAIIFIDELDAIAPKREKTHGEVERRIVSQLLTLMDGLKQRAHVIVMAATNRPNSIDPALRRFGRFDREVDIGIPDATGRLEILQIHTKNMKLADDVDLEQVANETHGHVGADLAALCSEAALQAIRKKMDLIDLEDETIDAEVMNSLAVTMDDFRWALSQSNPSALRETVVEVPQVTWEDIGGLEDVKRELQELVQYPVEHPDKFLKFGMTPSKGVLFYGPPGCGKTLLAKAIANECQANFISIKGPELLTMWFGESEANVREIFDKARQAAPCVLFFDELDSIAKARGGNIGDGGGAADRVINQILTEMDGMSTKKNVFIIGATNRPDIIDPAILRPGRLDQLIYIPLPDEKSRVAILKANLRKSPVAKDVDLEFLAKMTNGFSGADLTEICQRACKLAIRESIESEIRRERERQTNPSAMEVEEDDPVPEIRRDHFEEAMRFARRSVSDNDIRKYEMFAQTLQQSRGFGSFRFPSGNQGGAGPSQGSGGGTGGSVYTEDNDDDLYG

[2] = target: T1, C-terminally His-tagged full-length p97 …; experiment: MST; 0.06 μM dye-labelled FAF1 kept constant, full-length p97 titrated between 135 and 0.0041 μM; 20 mM HEPES, 150 mM KCl, pH 7.4; 30 °C; average of two experiments, Hill equation fit; conditions: both partners purified
[3] = target: the molecule itself; experiment: native MS; full-length FAF1 at 10 μM in 200 mM ammonium acetate pH 7.5; Q-ToF modified for high mass detection
[4] = target: the molecule itself; experiment: cross-linking; 15 μM FAF1 or truncation in SEC buffer with ethyl glycol bissuccinimidyl succinate (EGS), 15 min at room temperature, stopped with Tris, SDS-PAGE

B1: N-terminally His-tagged full-length FAF1 (natural protein, murine, UniProt P54731 1-649, looked up)
chain: MASNMDREMILADFQACTGIENIDEAITLLEQNNWDLVAAINGVIPQENGILQSDFGGETMPGPTFDPASHPAPASTPSSSAFRPVMPSRQIVERQPRMLDFRVEYRDRNVDVVLEDSCTVGEIKQILENELQIPVPKMLLKGWKTGDVEDSTVLKSLHLPKNNSLYVLTPDLPPPSSSSHAGALQESLNQNFMLIITHREVQREYNLNFSGSSTVQEVKRNVYDLTSIPVRHQLWEGWPASATDDSMCLAESGLSYPCHRLTVGRRTSPVQTREQSEEQSTDVHMVSDSDGDDFEDASEFGVDDGEVFGMASSTLRKSPMMPENAENEGDALLQFTAEFSSRYGDCHPVFFIGSLEAAFQEAFYVKARDRKLLAIYLHHDESVLTNVFCSQMLCAESIVSYLSQNFITWAWDLTKDTNRARFLTMCNRHFGSVIAQTIRTQKTDQFPLFLIIMGKRSSNEVLNVIQGNTTVDELMMRLMAAMEIFSAQQQEDIKDEDEREARENVKREQDEAYRLSLEADRAKREAHEREMAEQFRLEQIRKEQEEEREAIRLSLEQALPPEPKEENAEPVSKLRIRTPSGEFLERRFLASNKLQIVFDFVASKGFPWDEFKLLSTFPRRDVTQLDPNKSLLEVNLFPQETLFLQAKE
modifications: NanoTemper495-N-hydroxysuccinimide blue/red dye label (in the MST only)
notes: Fas-associated factor 1 (FAF1), full length, in pProEx; the truncations end at residue 649; N-terminally His-tagged FAF1 was used for all experiments except nanogold labelling; also called Fas-associated factor 1; His-tagged FAF1; source: held on the nickel column from cleared lysate in the pull-down; not shown: His tag, N-terminal, kept
In the case of B1, the “KD site 1 (two-site model)” value [1] is reported as 0.8 µM, the “KD site 2 (two-site model)” value [1] is reported as 19 µM and the Kd [1] is reported as 5.2 µM. The “stoichiometry N” value [1] was 0.8 ± 0.03 FAF1 per p97, the Kd [2] was 0.13 µM and the “stoichiometry N” value [3] was 2 and 3.

B2: FAF1-CC-UBX(491–649) (domain or fragment, murine, UniProt P54731 491-649, looked up)
chain: QEDIKDEDEREARENVKREQDEAYRLSLEADRAKREAHEREMAEQFRLEQIRKEQEEEREAIRLSLEQALPPEPKEENAEPVSKLRIRTPSGEFLERRFLASNKLQIVFDFVASKGFPWDEFKLLSTFPRRDVTQLDPNKSLLEVNLFPQETLFLQAKE
notes: Fas-associated factor 1 (FAF1), residues 491–649 (coiled-coil and UBX domains), in pGEx; also called coiled-coil and UBX domains of FAF1; source: E. coli Rosetta 2 (autoinduction), purified (GSTrap, GST cleaved with HRV 3C, size-exclusion chromatography)
With B2 the “KD site 1 (two-site model)” value [1] was 0.7 µM, the “KD site 2 (two-site model)” value [1] was 12 µM and the Kd [1] was 4.9 µM. The “stoichiometry N” value [1] was 0.89 ± 0.3 FAF1-CC-UBX per p97 and the “stoichiometry N” value [4] was 3.

B3: FAF1-UBX(550–649) (domain or fragment, murine, UniProt P54731 550-649, looked up)
chain: EAIRLSLEQALPPEPKEENAEPVSKLRIRTPSGEFLERRFLASNKLQIVFDFVASKGFPWDEFKLLSTFPRRDVTQLDPNKSLLEVNLFPQETLFLQAKE
notes: Fas-associated factor 1 (FAF1), residues 550–649 (UBX domain), in pGEx; also called UBX domain of FAF1; source: E. coli Rosetta 2 (autoinduction), purified (GSTrap, GST cleaved with HRV 3C, size-exclusion chromatography)
With B3 the Kd [1] was 3.9 µM and the “stoichiometry N” value [1] was 0.98 ± 0.1 FAF1-UBX per p97.
